Experimental data as given in article PMC4156082.

How the values were obtained:
[1] = molecular target: Soluble RhoA (residues 1–181) (UniProt P61586); test: SPR; Biacore 3000; His6-RhoA loaded with GDPβS (RhoA-GDP) held on a nitrilotriacetic acid chip; untagged onco-Lbc or DHαPH injected (0–5 μM); PBS pH 7.4, 1 mM MgCl2; reference lane His6-ubiquitin; constant of onco-Lbc called apparent (two sites)
[2] = molecular target: Soluble RhoA (residues 1–181) (UniProt P61586); test: SPR; Biacore 3000; His6-RhoA loaded with GTPγS (RhoA-GTP) held on a nitrilotriacetic acid chip; untagged onco-Lbc or DHαPH injected (0–5 μM); PBS pH 7.4, 1 mM MgCl2; reference lane His6-ubiquitin; constant of onco-Lbc called apparent (two sites)
[3] = molecular target: Soluble RhoA (residues 1–181) (UniProt P61586)
[4] = molecular target: Soluble RhoA (residues 1–181) (UniProt P61586); remark: listed apart in the source

UniProt P61586, sequence (P61586 1-181): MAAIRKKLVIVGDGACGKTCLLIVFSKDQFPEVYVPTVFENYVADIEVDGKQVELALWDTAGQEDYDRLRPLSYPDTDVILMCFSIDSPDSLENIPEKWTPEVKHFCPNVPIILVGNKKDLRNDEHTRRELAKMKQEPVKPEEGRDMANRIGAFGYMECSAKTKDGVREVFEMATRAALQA

Molecule | Kd [1] | Kd [2] | relative activity (specific exchange activity, DH-PH = 1) (fold of DH-PH) [3] | specific exchange activity (Mant-GDP on RhoA replaced by GMP-PNP) [3] | GEF activity: exchange of GDP to Mant-GTP on RhoA, wild-type onco-Lbc = 100 (% of wild-type onco-Lbc) [4]
AKAP-Lbc construct encompassing residues 2164–2346 (DHαPH) (from UniProt Q12802 2164-2346) (domain or fragment) | > 50 µM | 2.93 µM | – | – | –
onco-Lbc (AKAP13 residues 1922–2346) (domain or fragment) | 2.88 µM | 2.21 µM | – | – | –
onco-Lbc R2136G (domain or fragment) | – | – | 0.06 | 230 s⁻¹ M⁻¹ | 7.4
isolated DH domain of onco-Lbc (AKAP13 residues 1992–2210) (domain or fragment) VVKRQEVIYELMQTEFHHVRTLKIMSGVYSQGMMADLLFEQQMVEKLFPCLDELISIHSQFFQRILERKKESLVDKSEKNFLIKRIGDVLVNQFSGENAERLKKTYGKFCGQHNQSVNYFKDLYAKDKRFQAFVKKKMSSSVVRRLGIPECILLVTQRITKYPVLFQRILQCTKDNEVEQEDLAQSLSLVKDVIGAVDSKVASYEKKVRLNEIYTKTDS | – | – | 3.7 | 14300 s⁻¹ M⁻¹ | 174

Results, then the molecule that gave them:

Kd [1] | Kd [2] | relative activity (specific exchange activity, DH-PH = 1) (fold of DH-PH) [3] | specific exchange activity (Mant-GDP on RhoA replaced by GMP-PNP) [3] | GEF activity: exchange of GDP to Mant-GTP on RhoA, wild-type onco-Lbc = 100 (% of wild-type onco-Lbc) [4] | Molecule
– | – | 0.27 | 1070 s⁻¹ M⁻¹ | 8.4 | onco-Lbc E2001A (domain or fragment)
– | – | 1.86 | 7300 s⁻¹ M⁻¹ | 148 | onco-Lbc E2319A (domain or fragment)
– | – | 0.11 | 440 s⁻¹ M⁻¹ | 23.3 | onco-Lbc F2299A (domain or fragment)
– | – | 0.17 | 680 s⁻¹ M⁻¹ | 10.9 | onco-Lbc R2289A (domain or fragment)
